Results taken from US20200317768A1 (published 2020).
Residue numbers refer to the chain shown, from its start.

T1: cynomolgus monkey FcγRIIIaS extracellular domain, His-tagged (cynomolgus monkey, UniProt Q8SPW2 21-206 at identity 1.00))
T1 construct: also called cyno FcγRIIIaS; cynoFcγRIIIaS
T1 chain: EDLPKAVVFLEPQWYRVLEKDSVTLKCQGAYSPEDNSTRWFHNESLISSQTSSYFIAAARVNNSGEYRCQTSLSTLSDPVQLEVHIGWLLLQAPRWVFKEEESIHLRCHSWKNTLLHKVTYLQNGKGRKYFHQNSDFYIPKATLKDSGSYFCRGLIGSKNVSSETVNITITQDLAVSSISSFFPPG

T2: cynomolgus monkey FcγRIIb extracellular domain, His-tagged (cynomolgus monkey)
T2 construct: also called cyno FcγRIIb; cynoFcγRIIb
T2 chain: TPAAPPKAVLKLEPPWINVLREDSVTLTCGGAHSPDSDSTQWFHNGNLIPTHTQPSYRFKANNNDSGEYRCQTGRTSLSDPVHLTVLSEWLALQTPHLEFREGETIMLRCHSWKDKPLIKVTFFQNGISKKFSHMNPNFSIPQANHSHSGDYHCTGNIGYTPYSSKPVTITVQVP

T3: human FcγRIIaR extracellular domain, His-tagged (human, UniProt P12318 34-217)
T3 construct: also called human FcγRIIa (type R); FcgRIIaR
T3 chain: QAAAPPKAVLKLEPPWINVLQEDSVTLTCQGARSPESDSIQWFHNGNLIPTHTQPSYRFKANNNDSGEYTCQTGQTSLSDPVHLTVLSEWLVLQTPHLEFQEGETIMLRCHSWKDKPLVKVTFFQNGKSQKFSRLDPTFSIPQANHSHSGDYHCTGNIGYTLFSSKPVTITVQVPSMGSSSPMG

T4: cynomolgus monkey FcγRIIa2 extracellular domain, His-tagged (cynomolgus monkey)
T4 construct: also called cyno FcγRIIa2; cynoFcgRIIa2
T4 chain: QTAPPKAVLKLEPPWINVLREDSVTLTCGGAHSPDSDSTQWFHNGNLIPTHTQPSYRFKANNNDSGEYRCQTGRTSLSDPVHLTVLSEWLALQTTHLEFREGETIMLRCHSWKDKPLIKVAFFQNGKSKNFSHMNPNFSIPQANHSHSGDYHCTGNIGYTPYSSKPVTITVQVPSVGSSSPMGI

T5: human FcγRIIb extracellular domain, His-tagged (human, UniProt P31994 43-217)
T5 construct: also called FcgRIIb (human)
T5 sequence: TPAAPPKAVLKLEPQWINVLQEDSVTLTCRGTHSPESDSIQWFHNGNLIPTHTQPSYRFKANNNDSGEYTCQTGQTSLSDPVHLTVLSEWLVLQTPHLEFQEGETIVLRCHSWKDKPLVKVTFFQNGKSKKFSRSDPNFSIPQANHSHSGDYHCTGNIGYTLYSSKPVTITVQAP

T6: cynomolgus monkey FcγRIIa3 extracellular domain, His-tagged (cynomolgus monkey)
T6 construct: also called cyno FcγRIIa3; cynoFcgRIIa3
T6 chain: T4 chain with K127I, N130K, H133P, Q142R

T7: human FcγRIIaH extracellular domain, His-tagged (human, UniProt P12318 34-217)
T7 construct: also called human FcγRIIa (type H); FcgRIIaH
T7 sequence: T3 chain with R134H

B1: M103205H795-MY070/M103202L889-SK1 (antibody, human IgG1, kappa)
heavy: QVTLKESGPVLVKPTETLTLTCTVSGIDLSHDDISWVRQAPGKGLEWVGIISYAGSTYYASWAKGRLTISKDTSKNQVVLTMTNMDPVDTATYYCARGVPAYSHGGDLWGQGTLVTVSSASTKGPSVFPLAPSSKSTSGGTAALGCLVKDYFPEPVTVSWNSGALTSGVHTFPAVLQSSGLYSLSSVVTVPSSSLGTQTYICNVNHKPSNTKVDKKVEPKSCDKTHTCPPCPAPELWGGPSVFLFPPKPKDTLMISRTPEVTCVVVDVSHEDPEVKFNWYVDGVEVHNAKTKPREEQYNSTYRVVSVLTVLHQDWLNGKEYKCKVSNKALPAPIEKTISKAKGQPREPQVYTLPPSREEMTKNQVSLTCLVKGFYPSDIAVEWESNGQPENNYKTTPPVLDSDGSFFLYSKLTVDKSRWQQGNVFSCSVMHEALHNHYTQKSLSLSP
light: DIVMTQSPATLSLSPGERATLSCTSSQSVYHANWLSWFQQKPGQPPKLLIYWASTLAYGVPSRFSGSGSGTDFTLTISSLQPEDAATYYCAGGYGGGRYAFGQGTKVEIKRTVAAPSVFIFPPSDEQLKSGTASVVCLLNNFYPREAKVQWKVDNALQSGNSQESVTEQDSKDSTYSLSSTLTLSKADYEKHKVYACEVTHQGLSSPVTKSFNRGEC
notes: Substitution put into M103205H795-SG1
B2: M103205H795-MY072/M103202L889-SK1 (antibody, human IgG1, kappa)
heavy: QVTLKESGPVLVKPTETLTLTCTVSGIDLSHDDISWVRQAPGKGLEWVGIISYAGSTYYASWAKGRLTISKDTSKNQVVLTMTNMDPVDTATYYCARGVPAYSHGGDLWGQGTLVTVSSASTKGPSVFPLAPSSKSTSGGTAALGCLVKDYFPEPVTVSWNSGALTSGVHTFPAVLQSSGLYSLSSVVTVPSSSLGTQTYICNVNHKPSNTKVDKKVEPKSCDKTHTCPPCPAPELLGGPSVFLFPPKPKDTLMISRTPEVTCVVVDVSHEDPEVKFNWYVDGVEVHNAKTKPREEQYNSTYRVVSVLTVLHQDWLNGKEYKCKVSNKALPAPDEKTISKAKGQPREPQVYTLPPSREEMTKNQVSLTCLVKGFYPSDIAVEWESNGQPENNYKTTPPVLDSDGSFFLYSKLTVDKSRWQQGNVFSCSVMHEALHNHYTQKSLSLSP
light: B1 light
notes: as for B1
B3: M103205H795-MY073/M103202L889-SK1 (antibody, human IgG1, kappa)
heavy: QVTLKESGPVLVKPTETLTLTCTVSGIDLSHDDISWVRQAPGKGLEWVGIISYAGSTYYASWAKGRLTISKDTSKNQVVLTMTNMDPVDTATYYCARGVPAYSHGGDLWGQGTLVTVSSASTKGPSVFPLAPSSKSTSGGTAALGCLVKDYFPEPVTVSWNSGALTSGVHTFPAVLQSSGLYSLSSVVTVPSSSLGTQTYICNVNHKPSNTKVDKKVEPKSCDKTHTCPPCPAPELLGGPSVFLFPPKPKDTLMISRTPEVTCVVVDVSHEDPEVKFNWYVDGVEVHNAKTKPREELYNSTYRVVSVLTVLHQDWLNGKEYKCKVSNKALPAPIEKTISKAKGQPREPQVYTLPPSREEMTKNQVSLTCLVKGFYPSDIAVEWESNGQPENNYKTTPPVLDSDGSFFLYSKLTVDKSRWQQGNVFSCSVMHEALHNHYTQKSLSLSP
light: B1 light
notes: as for B1
B4: M103205H795-MY196/M103202L889-SK1 (antibody, human IgG1, kappa)
heavy: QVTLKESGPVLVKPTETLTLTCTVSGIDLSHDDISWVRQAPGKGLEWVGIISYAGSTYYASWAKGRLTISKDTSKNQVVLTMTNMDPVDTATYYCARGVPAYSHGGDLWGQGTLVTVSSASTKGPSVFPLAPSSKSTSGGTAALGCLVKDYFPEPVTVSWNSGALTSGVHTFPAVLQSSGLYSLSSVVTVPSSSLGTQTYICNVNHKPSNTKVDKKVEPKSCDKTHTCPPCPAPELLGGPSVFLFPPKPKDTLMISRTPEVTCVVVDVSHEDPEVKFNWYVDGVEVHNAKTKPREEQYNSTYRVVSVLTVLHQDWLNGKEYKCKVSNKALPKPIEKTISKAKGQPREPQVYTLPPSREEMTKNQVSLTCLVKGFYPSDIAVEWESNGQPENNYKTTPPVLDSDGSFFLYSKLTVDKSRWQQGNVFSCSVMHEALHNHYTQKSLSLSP
light: B1 light
notes: as for B1
B5: M103205H795-MY071/M103202L889-SK1 (antibody, human IgG1, kappa)
heavy: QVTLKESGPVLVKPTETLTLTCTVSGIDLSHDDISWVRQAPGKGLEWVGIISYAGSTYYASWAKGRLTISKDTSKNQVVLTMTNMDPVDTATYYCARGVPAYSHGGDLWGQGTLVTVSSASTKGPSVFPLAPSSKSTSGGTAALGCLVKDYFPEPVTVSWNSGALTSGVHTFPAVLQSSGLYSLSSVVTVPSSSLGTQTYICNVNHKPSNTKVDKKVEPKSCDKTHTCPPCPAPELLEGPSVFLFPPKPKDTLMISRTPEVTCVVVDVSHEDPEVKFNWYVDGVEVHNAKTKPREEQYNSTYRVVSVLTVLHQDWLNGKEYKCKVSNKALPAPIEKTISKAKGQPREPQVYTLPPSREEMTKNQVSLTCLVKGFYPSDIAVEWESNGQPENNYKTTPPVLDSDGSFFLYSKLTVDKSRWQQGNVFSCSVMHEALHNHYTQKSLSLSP
light: B1 light
notes: as for B1
B6: M103205H795-MY124/M103202L889-SK1 (antibody, human IgG1, kappa)
heavy: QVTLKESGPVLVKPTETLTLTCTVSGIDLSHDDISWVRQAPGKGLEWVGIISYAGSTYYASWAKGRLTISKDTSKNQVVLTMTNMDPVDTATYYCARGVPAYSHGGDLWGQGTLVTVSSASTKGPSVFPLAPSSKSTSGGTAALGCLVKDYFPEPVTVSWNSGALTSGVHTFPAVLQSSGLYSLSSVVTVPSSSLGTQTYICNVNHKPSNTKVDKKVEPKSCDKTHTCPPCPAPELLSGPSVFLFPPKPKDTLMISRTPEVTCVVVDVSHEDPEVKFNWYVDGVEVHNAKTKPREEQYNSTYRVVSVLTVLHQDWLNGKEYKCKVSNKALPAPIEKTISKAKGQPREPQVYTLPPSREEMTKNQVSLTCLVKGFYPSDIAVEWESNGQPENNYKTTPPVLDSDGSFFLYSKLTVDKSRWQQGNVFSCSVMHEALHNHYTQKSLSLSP
light: B1 light
notes: as for B1

Tests used:
Assay in all cases: SPR; KD of SG1 / KD of variant;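 note: relative to parent M103205H795-SG1 carrying the SG1 human heavy chain constant region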
[1] = molecular target: T1, cynomolgus monkey FcγRIIIaS …
[2] = molecular target: T2, cynomolgus monkey FcγRIIb extracellular …
[3] = molecular target: T3, human FcγRIIaR extracellular domain, …
[4] = molecular target: T4, cynomolgus monkey FcγRIIa2 …
[5] = molecular target: T5, human FcγRIIb extracellular domain, …
[6] = molecular target: T8, human FcγRIIIaV extracellular domain, His-tagged (human, UniProt P08637 17-208)
T8 construct: also called FcgRIIIaV

[7] = molecular target: T6, cynomolgus monkey FcγRIIa3 …
[8] = molecular target: T7, human FcγRIIaH extracellular domain, …

T8 sequence (P08637 17-208 F176V): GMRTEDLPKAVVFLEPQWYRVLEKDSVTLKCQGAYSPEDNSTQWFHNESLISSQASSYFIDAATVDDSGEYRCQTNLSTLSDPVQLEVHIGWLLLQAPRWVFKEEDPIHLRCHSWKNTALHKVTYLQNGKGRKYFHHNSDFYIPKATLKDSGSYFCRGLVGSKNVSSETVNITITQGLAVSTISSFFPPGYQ

Binder	KD fold (SG1 = 1) [1] [fold]	KD fold (SG1 = 1) [2] [fold]	KD fold (SG1 = 1) [3] [fold]	KD fold (SG1 = 1) [4] [fold]	KD fold (SG1 = 1) [5] [fold]	KD fold (SG1 = 1) [6] [fold]	KD fold (SG1 = 1) [7] [fold]	KD fold (SG1 = 1) [8] [fold]
B1	0.73	1.5	1.5	1.8	1.8	1.16	3.6	1.4
B2	6.79	3.8	2.3	4.3	3.1	6.75	6.5	2.8
B3	2.12	2.7	2.2	8.9	2.3	2.38	3.3	2.9
B4	0.6	0.8	0.8	1.7	0.7	0.37	0.7	1.4
B5	1.29	0.7	2.4	1.4	1.9	1.59	1.5	1.7
B6	0.28	0.8	2.1	1.6	0.5	0.16	1.4	4.9
